Assay results: patent US20240167098, “METHODS FOR PREDICTING TREATMENT OUTCOME TO CHECKPOINT INHIBITORS IN CANCER” (The Brigham and Women`s Hospital, Inc., published 2024)

Columns and labels:
[1] = molecular target: T1, HNRNPH1 (hnRNP H1) isoform A (UniProt P31943 P31943:1-449); test: MST; value only in figure; same buffer as INCR1; details: label: 3' FAM (MST); 32P (EMSA)
T1 sequence: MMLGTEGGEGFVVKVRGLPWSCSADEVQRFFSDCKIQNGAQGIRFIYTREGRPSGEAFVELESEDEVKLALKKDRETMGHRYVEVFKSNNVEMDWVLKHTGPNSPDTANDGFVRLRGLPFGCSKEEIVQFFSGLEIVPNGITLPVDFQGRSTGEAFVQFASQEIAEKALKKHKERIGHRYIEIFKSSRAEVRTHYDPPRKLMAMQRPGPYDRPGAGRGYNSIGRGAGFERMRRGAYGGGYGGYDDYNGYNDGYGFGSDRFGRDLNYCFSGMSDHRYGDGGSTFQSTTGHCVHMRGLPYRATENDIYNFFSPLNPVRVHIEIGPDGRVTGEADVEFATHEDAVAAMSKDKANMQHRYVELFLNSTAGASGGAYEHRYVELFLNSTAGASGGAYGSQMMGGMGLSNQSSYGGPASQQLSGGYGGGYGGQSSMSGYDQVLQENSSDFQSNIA
Procedure: (§1) Microscale thermophoresis. MicroScale Thermophoresis experiments were performed according to the NanoTemper technologies protocol in a Monolith NT.115Pico (red/blue) instrument (NanoTemper Technologies). Serial dilutions of HNRNPH1 were done using a buffer containing 50 mM Tris [pH 8.0], 300 mM KCl, 0.02% NP-40, 10% Glycerol, and 0.5 mg/ml Heparin. RNA oligos were labeled with a FAM moiety at their […] (IDT). The RNA concentration was kept constant at 20 nM throughout the experiments. The RNA-protein mixture was incubated at room temperature for 15 mins before running into the MST instrument. The experiments were performed using 40% and 60% MST power and between 20%-80% LED power at 22_C. The MST traces were recorded using the standard parameters: 5 s MST power off, 30 s medium MST power on and 5 s MST power off. The reported measurement values are the combination of two effects: the fast, local environment dependent responses of the fluorophore to the temperature jump and the slower diffusive thermophoresis fluorescence changes. The data presented here are the average of 3 independent experiments. Average normalized fluorescence (%) was plotted against HNRNPH1 concentration to determine the binding constant (Kd). Ligand depletion model with one binding site was used (Using GraphPad Prism 8) to fit the binding which follows the following model: Y=Bmax*X/(Kd+X).

[2] = molecular target: T1, HNRNPH1 (hnRNP H1) isoform A; test: MST; value only in figure; 20 nM RNA, 50 mM Tris pH 8.0, 300 mM KCl, 0.02% NP-40, 10% glycerol, 0.5 mg/ml heparin, 22 C; details: label: 3' FAM (MST)
Procedure: as §1

B1: PD-L1 RNA oligo (ssRNA)
RNA: UAAGGGGUGAGGGGCAGGAGAAUGGGUAUGGAUGGAGGUAGA
- binding result [1]: binds

B2: JAK2 RNA oligo (ssRNA)
RNA: AUACGUGGGAGUGGGGUGCUGAGCUGGGCAGGGUGAGAGUAU
- binding result [1]: binds

B3: INCR1 RNA oligo (ssRNA)
RNA: GGGGCGGGCCGGUUGCCGGGGGGAGCUGGAGUCACGUGACGGC
- binding result [2]: binds
